Molecular target: HA-SKP2 phosphorylated in vitro by AKT (32P-SKP2) (UniProt Q13309)
Sequence (Q13309 whole entry, looked up): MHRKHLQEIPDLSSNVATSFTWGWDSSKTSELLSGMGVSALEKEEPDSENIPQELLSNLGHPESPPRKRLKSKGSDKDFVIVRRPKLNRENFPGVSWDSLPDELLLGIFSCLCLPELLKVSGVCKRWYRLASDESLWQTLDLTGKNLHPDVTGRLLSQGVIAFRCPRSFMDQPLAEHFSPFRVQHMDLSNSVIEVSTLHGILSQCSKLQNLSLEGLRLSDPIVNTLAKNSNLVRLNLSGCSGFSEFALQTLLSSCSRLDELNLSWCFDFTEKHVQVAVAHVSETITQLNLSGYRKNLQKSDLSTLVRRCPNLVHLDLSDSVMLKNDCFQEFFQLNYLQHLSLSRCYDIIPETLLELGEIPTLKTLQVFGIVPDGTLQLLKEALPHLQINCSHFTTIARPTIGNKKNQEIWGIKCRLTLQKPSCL

Substance: flag-PTEN
- removal of 32P from AKT-phosphorylated SKP2: neither PTEN nor PPM1H exhibited any evidence of phosphatase activity on SKP2

Reference: patent US20110151454
